In PMC7774954 (PLoS ONE, 2020):
Where no end group is shown, it is not given here. The star is where a group is joined. Biotin = O=C1N[C@H]2[C@H](CS[C@H]2CCCCC(=O)*)N1; TTDS = NCCCOCCOCCOCCCNC(=O)CCC(=O)*

T1: PDZD7-3, third PDZ domain of PDZD7 (human, UniProt Q9H5P4 862-934)
T1 construct: PDZD7, human, PDZ domain 3; not shown: His6, N-terminal, kept; MBP, N-terminal, kept
T1 sequence (looked up): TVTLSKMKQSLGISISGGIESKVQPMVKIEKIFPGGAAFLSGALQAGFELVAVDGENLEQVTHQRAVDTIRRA

T2: PARD3B-1, first PDZ domain of PARD3B (human, UniProt Q8TEW8 201-289)
T2 construct: PARD3B, human, PDZ domain 1; not shown: His6, N-terminal, kept; MBP, N-terminal, kept
T2 sequence (looked up): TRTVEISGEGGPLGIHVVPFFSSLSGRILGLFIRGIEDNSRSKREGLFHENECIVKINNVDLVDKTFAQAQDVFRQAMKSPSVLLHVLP

T3: NHERF1-1 (human, UniProt O14745 14-94)
T3 construct: PDZ domain number 1 of human NHERF1; also called NHERF1 PDZ dom 1; first PDZ domain of the NHERF1 protein; source: E. coli, in crude cell lysate; not shown: His, N-terminal, kept
T3 sequence (looked up): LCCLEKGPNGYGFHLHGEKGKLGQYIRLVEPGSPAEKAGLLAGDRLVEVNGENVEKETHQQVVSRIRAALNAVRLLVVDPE

T4: PTPN13-2 (human, UniProt Q12923 1368-1452)
T4 construct: PDZ domain number 2 of human PTPN13; also called PTPN13 PDZ dom 2; source: E. coli, in crude cell lysate; not shown: His, N-terminal, kept
T4 sequence (looked up): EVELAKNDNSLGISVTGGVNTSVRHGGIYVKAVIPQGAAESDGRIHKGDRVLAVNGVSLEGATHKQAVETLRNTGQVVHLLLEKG

B1: PTEN_13, 13-mer wild-type PDZ-binding motif peptide of PTEN (peptide)
peptide: {Biotin-TTDS}-PFDEDQHTQITKV
notes: source: synthetic peptide, bought: JPT Innovative Peptide Solutions (70%-80% purity)
B2: PTEN_11, 11-mer wild-type PDZ-binding motif peptide of PTEN (peptide)
peptide: {Biotin-TTDS}-DEDQHTQITKV
notes: Labelled 'PTEN' in Supp; source: synthetic peptide (Chemical Peptide Synthesis Service of the IGBMC)
B3: PTEN_KR, 11-mer PTEN PDZ-binding motif peptide with K402R (peptide)
peptide: {Biotin-TTDS}-DEDQHTQITRV
notes: PTEN, human, canonical isoform I, residues 393-403 with K402R; source: synthetic peptide (Chemical Peptide Synthesis Service of the IGBMC)
B4: PTEN_Ac, 11-mer PTEN PDZ-binding motif peptide acetylated at K402 (peptide)
peptide: {Biotin-TTDS}-DEDQHTQITK(Ac)V
notes: PTEN, human, canonical isoform I, residues 393-403, K402 acetylated (acK); source: synthetic peptide (Chemical Peptide Synthesis Service of the IGBMC)
B5: PTEN_11 (peptide, UniProt P60484 393-403, looked up)
peptide: {Biotin-TTDS}-DEDQHTQITKV
notes: also called 11-mer wild-type PTEN PBM peptide; native PTEN_11 PBM; source: synthetic peptide (Chemical Peptide Synthesis Service of the IGBMC, Fmoc)
B6: PTEN_Ac (peptide, UniProt P60484 393-403, looked up)
peptide: {Biotin-TTDS}-DEDQHTQITK(Ac)V
notes: also called acetylated version of PTEN_11; acetylated peptide; source: synthetic peptide (Chemical Peptide Synthesis Service of the IGBMC, Fmoc)
B7: PTEN_KR (peptide, UniProt P60484 393-403, looked up)
peptide: {Biotin-TTDS}-DEDQHTQITRV
notes: also called K402R mutant; source: synthetic peptide (Chemical Peptide Synthesis Service of the IGBMC, Fmoc)

Experiments:
[1] = molecular target: T1, PDZD7-3, third PDZ domain of PDZD7; test: fluorescence polarisation; direct: N-terminally fluorescein-labelled PBM peptide (tracer) with increasing amounts of MBP-PDZ; 384-well plates; triplicate; direct binding model (ProFit); conditions: both partners purified
[2] = molecular target: T5, GRID2IP-2, second PDZ domain of GRID2IP (human, UniProt A4D2P6 279-356); test: as above; conditions: both partners purified
T5 construct: GRID2IP, human, PDZ domain 2; not shown: His6, N-terminal, kept; MBP, N-terminal, kept
T5 sequence (A4D2P6 279-356): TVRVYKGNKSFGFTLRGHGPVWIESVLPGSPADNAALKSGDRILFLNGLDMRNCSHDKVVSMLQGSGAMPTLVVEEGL

[3] = molecular target: T2, PARD3B-1, first PDZ domain of PARD3B; test: as above; conditions: both partners purified
[4] = molecular target: T1, PDZD7-3, third PDZ domain of PDZD7; test: fluorescence polarisation; competitive: pre-formed complex of PDZ domain (>60-80% complex) and 50 nM fluorescent tracer peptide, increasing amount of unlabeled PTEN peptide (8 concentrations); 20 mM HEPES pH 7.5, 150 mM NaCl, 0.5 mM TCEP, 0.01% Tween 20; triplicate; competitive binding model (ProFit); apparent; conditions: both partners purified
[5] = molecular target: T6, MAGI2-2, second PDZ domain of MAGI2 (human, UniProt Q86UL8 426-510); test: as above; conditions: both partners purified
T6 construct: not shown: His6, N-terminal, kept; MBP, N-terminal, kept
T6 sequence (Q86UL8 426-510): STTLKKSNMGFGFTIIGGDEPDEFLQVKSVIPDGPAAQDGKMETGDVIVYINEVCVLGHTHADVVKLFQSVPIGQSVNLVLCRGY

[6] = molecular target: T5, GRID2IP-2, second PDZ domain of GRID2IP; test: as above; conditions: both partners purified
[7] = molecular target: T7, MAGI2-2 (human, UniProt Q86UL8 426-510); test: holdup assay; biotinylated PBM peptide saturating streptavidin resin (biotin resin as reference); tag-PDZ at 4 uM in crude E. coli lysate, 15 min, filtration, free tag-PDZ by capillary electrophoresis; singlicate; BI cut-off 0.20; BI converted into KD with the peptide concentration back-calculated from FP; conditions: one partner purified
T7 construct: PDZ domain number 2 of human MAGI2; also called MAGI2 PDZ dom 2; source: E. coli, in crude cell lysate; not shown: His, N-terminal, kept
T7 sequence (Q86UL8 426-510): as above

[8] = molecular target: T8, MAGI2-3 (human, UniProt Q86UL8 605-683); test: as above; conditions: one partner purified
T8 construct: PDZ domain number 3 of human MAGI2; also called MAGI2 PDZ dom 3; source: E. coli, in crude cell lysate; not shown: His, N-terminal, kept
T8 sequence (Q86UL8 605-683): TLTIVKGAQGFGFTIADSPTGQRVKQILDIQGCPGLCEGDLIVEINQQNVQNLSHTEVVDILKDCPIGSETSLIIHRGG

[9] = molecular target: T3, NHERF1-1; test: as above; conditions: one partner purified
[10] = molecular target: DLG4-1 (human, UniProt P78352 65-151); test: as above; conditions: one partner purified
Sequence of DLG4-1 (P78352 65-151, looked up): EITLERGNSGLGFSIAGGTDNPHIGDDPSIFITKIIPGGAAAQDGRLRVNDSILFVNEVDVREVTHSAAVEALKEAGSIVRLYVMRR

[11] = molecular target: T9, MAGI1-3 (human, UniProt Q96QZ7 643-721); test: as above; conditions: one partner purified
T9 construct: PDZ domain number 3 of human MAGI1; also called MAGI1 PDZ dom 3; source: E. coli, in crude cell lysate; not shown: His, N-terminal, kept
T9 sequence (Q96QZ7 643-721): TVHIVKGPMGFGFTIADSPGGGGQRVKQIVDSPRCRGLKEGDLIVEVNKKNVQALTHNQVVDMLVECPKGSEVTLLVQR

[12] = molecular target: T10, MAGI3-2 (human, UniProt Q5TCQ9 410-492); test: as above; conditions: one partner purified
T10 construct: PDZ domain number 2 of human MAGI3; also called MAGI3 PDZ dom 2; source: E. coli, in crude cell lysate; not shown: His, N-terminal, kept
T10 sequence (Q5TCQ9 410-492): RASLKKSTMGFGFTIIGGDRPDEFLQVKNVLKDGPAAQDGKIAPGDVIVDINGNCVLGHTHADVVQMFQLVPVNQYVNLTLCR

[13] = molecular target: T11, NHERF2-1 (human, UniProt Q15599 11-90); test: as above; conditions: one partner purified
T11 construct: PDZ domain number 1 of human NHERF2; also called NHERF2 PDZ dom 1; source: E. coli, in crude cell lysate; not shown: His, N-terminal, kept
T11 sequence (Q15599 11-90): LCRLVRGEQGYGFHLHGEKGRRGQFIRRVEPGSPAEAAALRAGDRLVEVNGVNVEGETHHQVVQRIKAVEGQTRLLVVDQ

[14] = molecular target: T12, NHERF2-2 (human, UniProt Q15599 150-230); test: as above; conditions: one partner purified
T12 construct: PDZ domain number 2 of human NHERF2; also called NHERF2 PDZ dom 2; source: E. coli, in crude cell lysate; not shown: His, N-terminal, kept
T12 sequence (Q15599 150-230): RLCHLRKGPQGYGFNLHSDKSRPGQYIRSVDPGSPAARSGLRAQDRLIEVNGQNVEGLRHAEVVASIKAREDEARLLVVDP

[15] = molecular target: T13, PARD3-3 (human, UniProt Q8TEW0 590-677); test: as above; conditions: one partner purified
T13 construct: the text says PARD3-1; also called PARD3 PDZ dom 3; source: E. coli, in crude cell lysate; not shown: His, N-terminal, kept
T13 sequence (Q8TEW0 590-677): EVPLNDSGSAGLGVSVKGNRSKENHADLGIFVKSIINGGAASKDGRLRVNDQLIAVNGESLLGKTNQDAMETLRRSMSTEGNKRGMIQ

[16] = molecular target: T4, PTPN13-2; test: as above; conditions: one partner purified
[17] = molecular target: T14, DLG1-2 (human, UniProt Q12959 319-405); test: as above; conditions: one partner purified
T14 construct: PDZ domain number 2 of human DLG1; also called DLG1 PDZ dom 2; source: E. coli, in crude cell lysate; not shown: His, N-terminal, kept

Row | Binder | Kd [4] [µM] | Kd [6] [µM] | Kd [7] [µM] | Kd [8] [µM] | Kd [9] [µM] | Kd [10] [µM] | Kd [11] [µM] | further results
1 | fluorescein-KLPSTTL (source: synthetic peptide) [fRSK1, fluorescein-labelled RSK1 PBM peptide] |  |  |  |  |  |  |  | Kd [1]: 1.57 µM; Kd [2]: 5.43 µM; Kd [3]: 33.7 µM
2 | B1 | 5.76 |  |  |  |  |  |  | Kd [5]: 79.7 µM
3 | B2 | 20.1 | 87 |  |  |  |  |  | 
4 | B3 | 8.2 | 51.6 |  |  |  |  |  | 
5 | B4 | 2.84 | 36.7 |  |  |  |  |  | Kd [5]: 66.4 µM
6 | B5 |  |  | 152 | 47 | 33 | 293 | 30 | 
7 | B6 |  |  | 56 | 15 | 14 | 155 | 10 | 
8 | B7 |  |  | 29 | 21 | 4 | 81 | 15 | Kd [12]: 29 µM; Kd [13]: 120 µM; Kd [14]: 21 µM; Kd [15]: 56 µM; Kd [16]: 153 µM; Kd [17]: 71 µM
